Literature values, collected in article PMC7948954.
Values belong to the substance of their own block, whether it stands above or below them.

Assays:
[1] = target: Col10 (Arabidopsis thaliana) (UniProt Q9LUA9)
[2] = target: DREB2a (Arabidopsis thaliana) (UniProt O82132)
[3] = target: ANAC087 (Arabidopsis thaliana) (UniProt Q9FK44)
[4] = target: ANAC013 (Arabidopsis thaliana) (UniProt F4IED2)
[5] = target: STO (Arabidopsis thaliana) (UniProt Q96288)
Mad1 = Mad1 (UniProt Q05195)
Pf1 = Pf1 (UniProt Q96QT6)
Sequence of UniProt Q96QT6 (Q96QT6 202-241): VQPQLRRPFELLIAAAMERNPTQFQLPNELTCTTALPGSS

SAP30 = SAP30 (UniProt O88574)
Sequence of UniProt O88574 (O88574 130-220): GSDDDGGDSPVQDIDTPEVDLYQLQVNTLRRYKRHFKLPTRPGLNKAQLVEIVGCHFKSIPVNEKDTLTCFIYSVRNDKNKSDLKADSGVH

Sequence of UniProt Q96288 (Q96288 whole entry): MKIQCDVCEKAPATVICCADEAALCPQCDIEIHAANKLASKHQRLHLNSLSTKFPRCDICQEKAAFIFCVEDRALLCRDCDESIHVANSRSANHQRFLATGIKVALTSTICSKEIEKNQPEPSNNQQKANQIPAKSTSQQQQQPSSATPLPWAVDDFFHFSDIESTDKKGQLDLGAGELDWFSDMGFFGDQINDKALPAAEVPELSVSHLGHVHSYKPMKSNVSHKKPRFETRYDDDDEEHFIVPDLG
Sequence of UniProt Q9LUA9 (Q9LUA9 whole entry): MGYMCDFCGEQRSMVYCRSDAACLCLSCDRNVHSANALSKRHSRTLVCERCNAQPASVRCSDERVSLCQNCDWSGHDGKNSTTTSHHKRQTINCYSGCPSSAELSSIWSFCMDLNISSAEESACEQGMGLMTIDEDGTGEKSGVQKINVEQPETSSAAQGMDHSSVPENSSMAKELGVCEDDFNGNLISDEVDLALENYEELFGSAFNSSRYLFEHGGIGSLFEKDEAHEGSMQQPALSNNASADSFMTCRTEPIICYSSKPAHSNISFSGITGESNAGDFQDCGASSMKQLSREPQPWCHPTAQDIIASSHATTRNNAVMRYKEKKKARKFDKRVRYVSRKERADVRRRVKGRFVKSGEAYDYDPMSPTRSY
Sequence of UniProt Q05195 (Q05195 5-24): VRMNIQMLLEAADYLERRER
Sequence of UniProt O82132 (O82132 whole entry): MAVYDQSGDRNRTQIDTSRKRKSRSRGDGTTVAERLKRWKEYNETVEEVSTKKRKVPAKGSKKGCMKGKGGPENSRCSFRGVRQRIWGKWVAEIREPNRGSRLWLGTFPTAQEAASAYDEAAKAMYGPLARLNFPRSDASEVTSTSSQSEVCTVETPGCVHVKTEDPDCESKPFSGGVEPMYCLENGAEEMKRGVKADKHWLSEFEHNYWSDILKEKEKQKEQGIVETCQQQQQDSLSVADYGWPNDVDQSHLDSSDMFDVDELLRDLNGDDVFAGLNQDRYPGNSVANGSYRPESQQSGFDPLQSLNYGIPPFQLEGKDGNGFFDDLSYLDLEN
Sequence of UniProt Q9FK44 (Q9FK44 whole entry): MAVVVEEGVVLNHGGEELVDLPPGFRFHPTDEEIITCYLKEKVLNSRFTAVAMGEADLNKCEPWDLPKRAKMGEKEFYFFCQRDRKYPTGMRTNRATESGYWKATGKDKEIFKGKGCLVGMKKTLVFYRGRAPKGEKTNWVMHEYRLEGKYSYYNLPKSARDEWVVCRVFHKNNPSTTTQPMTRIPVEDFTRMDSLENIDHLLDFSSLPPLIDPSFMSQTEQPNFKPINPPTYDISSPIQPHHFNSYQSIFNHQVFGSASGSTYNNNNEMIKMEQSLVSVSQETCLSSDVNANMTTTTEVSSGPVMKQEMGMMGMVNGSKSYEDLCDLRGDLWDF
Sequence of UniProt F4IED2 (F4IED2 whole entry): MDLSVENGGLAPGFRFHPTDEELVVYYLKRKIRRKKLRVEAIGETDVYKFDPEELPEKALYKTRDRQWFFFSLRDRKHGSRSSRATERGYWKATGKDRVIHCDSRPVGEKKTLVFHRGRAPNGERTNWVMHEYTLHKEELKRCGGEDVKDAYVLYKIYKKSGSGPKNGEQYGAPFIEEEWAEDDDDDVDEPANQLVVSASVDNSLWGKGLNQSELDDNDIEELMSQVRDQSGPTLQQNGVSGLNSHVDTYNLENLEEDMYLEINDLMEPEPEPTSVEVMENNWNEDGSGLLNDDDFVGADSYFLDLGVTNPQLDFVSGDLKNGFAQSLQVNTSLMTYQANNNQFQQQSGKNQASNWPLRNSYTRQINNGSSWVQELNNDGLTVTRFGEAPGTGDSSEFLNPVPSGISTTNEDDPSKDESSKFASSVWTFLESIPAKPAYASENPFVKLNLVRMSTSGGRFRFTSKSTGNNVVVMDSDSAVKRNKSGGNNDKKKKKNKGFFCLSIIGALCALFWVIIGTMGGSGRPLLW

Kd [1]: 0.418 µM
Kd [2]: 0.016 µM
Kd [3]: 1.8 µM
Kd [4]: 0.009 µM
Kd [5]: 0.09 µM
Substance: RCD1 RST (from UniProt Q8RY59)

Kd (Mad1): 0.05 µM
Kd (Pf1): 2 µM
Substance: Sin3 PAH2 (from UniProt Q60520)

Kd (SAP30): 0.009 µM
Substance: Sin3a PAH3 (from UniProt Q60520)
